Key:
[1] = test system: EBV-eGFP infection of Raji cells; test: EBV neutralization assay in Raji cells; type: cell-based, Epstein-Barr virus; details: for blocking of EBV infection of Raji cells (nAb activity) / blocking of EBV infection of Raji cells (in words): protein G and size-exclusion chromatography-purified mAbs; for blocking of EBV infection of Raji cells (nAb activity): lowest concentration 12.5 μg/ml; for neutralization of EBV in Raji cells (in words): spin-column purified mAbs, 12.5, 25, 50 and 100 μg/ml; for neutralization of EBV in Raji cells: spin-column purified mAbs; for neutralization of EBV in Raji cells / blocking of EBV infection of Raji cells (in words): 12.5-100 μg/ml
Procedure: EBV neutralization assay was performed in Raji cells as previously described (47). Briefly, purified individual anti-gp350 mAbs were incubated with purified AGS-EBV-eGFP (titer calculated to infect at least 8% of HEK293 cells seeded in 100 μl of serum-free DMEM) for 2 hours at 37° C. To represent EBV infection of B cells, the pre-incubated anti-gp350 mAbs/AGS-EBV-eGFP were used to infect 5×10^5 Raji cells seeded in a 96-well plate for 2 hours at 37° C. Neutralizing 72A1 and non-neutralizing 2L10 anti-gp350 mAbs served as positive and negative controls, respectively. Infected cells were washed three times with PBS to remove any unbound viruses and antibodies. Washed, infected cells were incubated in 96-well plates at 37° C. for 48 hours post-infection and the number of eGFP+ (infected) cells was determined using flow cytometry. All dilutions were performed in quintuplicate and the assays were repeated three times. Antibody EBV neutralization activity was calculated as: % neutralization=(EBValone−EBVmAb)/(EBValone)×100.
However, this antibody was recently reported to be a mixture of both functional and non-functional antibodies (50). […] The percentage of eGFP+ cells (percent infection) was determined using flow cytometry as described (47). The nAbs 72A1 and E1D1 were used as positive controls, whereas the anti-gp350 non-neutralizing mAb 2L10 and KSHV gH/gL mAb 54A1 were used as negative controls. Because HB4, HB13, HB15, HB16, HB19, HB21, and HB23 were confirmed to be polyclonal based on isotyping and/or sequence data, they were eliminated from further consideration in the neutralization assay. HB18 was not used in neutralization experiments because it was identical to HB8.
The purified eGFP-tagged-EBV was titered in Raji cells to determine percent EBV infection using a range of volumes (50-250 μl) (FIG. 5A). Then initial neutralization of EBV was conducted in Raji cells using purified mAbs at various concentrations (12.5, 25, 50, and 100 μg/ml).
EBV-eGFP+ cells were enumerated using flow cytometry.

[2] = test system: EBV gp350 20-mer linear peptides (gp350 regions); type: binding, Epstein-Barr virus; details: 10 μg/ml mAb, 10 μg/ml peptide
Procedure: Forty-five sequential 20-mer linear peptides, covering the whole sequence of gp350 (GenBank: NC_007605.1), with an exception of aa 862-881, were synthesized using a solid phase method and cleaved using a low-high hydrogen fluoride method by the GenicBio, as previously described (58).
The binding of anti-gp350 mAbs to 45 synthesized 20-mer sequential peptides covering the total length of gp350 was analyzed using indirect ELISA as described (58). Briefly, immunoplates were coated with 50 μl of 10 μg/ml EBV gp350 peptides (forty-five 20-mers) diluted in PBS and incubated overnight at 4° C.; 0.5 μg/ml recombinant EBV gp350 ectodomain protein was used as a positive control. After washing three times with washing buffer (PBS containing 0.05% (v/v) Tween 20), plates were blocked with 100 μl washing buffer containing 3% BSA (blocking buffer), incubated for 1 hour at room temperature, and washed as above. Ten μg/ml purified mAbs were added to each well in triplicate and incubated for 2 hours at room temperature. […] The plates were washed as described above, followed by incubation with goat anti-mouse IgG or goat anti-human IgG HRP-conjugated secondary antibody (1:2,000 diluted in PBS) at room temperature for 1 hour. The plates were washed again and the chromogenic substrate ABTS was added. The reaction was stopped using ABTS peroxidase stop solution. The absorbance was read at an optical density of 405 nm using an ELISA plate reader.
The peptide library, consisting of 20-mer peptides, covered the entire gp350 protein, with the exception of AA 862-881 (Table 9).
Purified recombinant gp350 ectodomain was used as a control to validate the binding activity for all of the antibodies used. The overall gp350 sequence was divided into nine different regions consisting of ˜100 AA (FIG. 7).

[3] = molecular target: T1, EBV gp350 stably expressed on CHO cells (Epstein-Barr virus, UniProt P03200); test: Epitope mapping by competitive cell binding assay with biotinylated mAbs; details: for % inhibition of biotinylated nAbs (biotinylated m72A1) / antigen binding competition with biotinylated m72A1 (in words): biotinylated m72A1 1 μg/ml; for competitive binding versus m72A1 and h72A1 (in words): biotinylated antibodies; for antigen binding competition with biotinylated m72A1 (in words): unlabeled mAbs 500-67.5 μg/ml
T1 construct: stably co-transfected with full-length pCAGGS-gp350/220 and pCI-puro vector; expressed in transfected cells; host or cells: CHO cells
T1 sequence (P03200 whole entry): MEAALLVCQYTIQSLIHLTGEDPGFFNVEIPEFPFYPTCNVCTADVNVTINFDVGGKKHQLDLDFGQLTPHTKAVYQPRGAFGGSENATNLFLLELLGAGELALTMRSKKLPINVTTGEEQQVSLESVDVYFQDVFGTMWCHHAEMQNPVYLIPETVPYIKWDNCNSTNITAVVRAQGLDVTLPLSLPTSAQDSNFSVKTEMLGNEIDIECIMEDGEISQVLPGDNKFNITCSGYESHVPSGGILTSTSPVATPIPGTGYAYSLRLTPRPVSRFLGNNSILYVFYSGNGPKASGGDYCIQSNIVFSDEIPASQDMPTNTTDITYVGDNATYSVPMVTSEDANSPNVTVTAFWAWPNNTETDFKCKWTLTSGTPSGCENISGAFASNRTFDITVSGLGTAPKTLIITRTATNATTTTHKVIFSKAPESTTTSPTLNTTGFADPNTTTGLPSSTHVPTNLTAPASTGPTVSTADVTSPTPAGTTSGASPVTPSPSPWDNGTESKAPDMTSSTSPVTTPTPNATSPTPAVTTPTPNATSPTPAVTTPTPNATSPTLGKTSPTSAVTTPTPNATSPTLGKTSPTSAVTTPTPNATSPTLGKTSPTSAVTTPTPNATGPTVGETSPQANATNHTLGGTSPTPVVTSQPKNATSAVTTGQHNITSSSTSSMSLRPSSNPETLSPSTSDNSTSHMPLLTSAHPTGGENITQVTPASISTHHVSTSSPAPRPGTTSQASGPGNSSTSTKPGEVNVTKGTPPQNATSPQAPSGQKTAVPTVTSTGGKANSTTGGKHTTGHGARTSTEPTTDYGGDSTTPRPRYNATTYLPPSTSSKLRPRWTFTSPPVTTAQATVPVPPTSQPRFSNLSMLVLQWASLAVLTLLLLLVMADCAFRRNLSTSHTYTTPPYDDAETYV
Procedure: To evaluate conformation epitope mapping of the selected mAbs, competitive binding assays were conducted using biotinylated mAbs. A one-step antibody biotinylation kit (MACS Miltenyi Biotec) was used to biotinylate the mAbs. Approximately 1×10^5 CHO cells that stably expressed EBV gp350 were incubated for 2 hours with serially diluted ([…]) unlabeled competitor mAbs and non-specific anti-KSHV gH/gL 54A1 mAb. After being washed with PBS, the cells were incubated for 2 hours in the presence of 1 μg/ml biotinylated mAbs. To determine maximum binding, cells in which the biotinylated mAb was added in the absence of unlabeled mAbs were included in the assay. Cells were washed with PBS, followed by incubation for 1 hour with anti-biotin AF488 at a dilution of 1:500. After the final wash in PBS, cells were resuspended in 1% paraformaldehyde and analyzed by flow cytometry as described above. Percentage of inhibition was calculated as: 100−[(% fluorescent cells with competitor mAb/% fluorescent cells without competitor mAb)×100]. The complete prevention of binding of a biotinylated mAb by its unlabeled counterpart was used as a validation of the assay, as previously described (84).
At least seven unique CD21 binding epitopes on EBV gp350 have been predicted (Table 3).

Row | Molecule | blocking of EBV infection of Raji cells (nAb activity) [1] [%] | neutralization of EBV in Raji cells (in words) [1] | neutralization of EBV in Raji cells [1] | binding to gp350 region AA 102-201 (linear peptides) [2] | % inhibition of biotinylated 54A1 ([3]; 1 μg/ml biotinylated 54A1, 500 μg/ml unlabeled mAb) [%] | % inhibition of biotinylated HB1 ([3]; 1 μg/ml biotinylated HB1, 500 μg/ml unlabeled mAb) [%] | % inhibition of biotinylated HB5 ([3]; 1 μg/ml biotinylated HB5, 500 μg/ml unlabeled mAb) [%] | % inhibition of biotinylated HB11 ([3]; 1 μg/ml biotinylated HB11, 500 μg/ml unlabeled mAb) [%] | % inhibition of biotinylated HB17 ([3]; 1 μg/ml biotinylated HB17, 500 μg/ml unlabeled mAb) [%] | % inhibition of biotinylated HB20 ([3]; 1 μg/ml biotinylated HB20, 500 μg/ml unlabeled mAb) [%] | % inhibition of biotinylated h72A1 ([3]; 1 μg/ml biotinylated h72A1, 500 μg/ml unlabeled mAb) [%] | % inhibition of biotinylated m72A1 ([3]; cross-competition, 1 μg/ml biotinylated m72A1, 500 μg/ml unlabeled mAb) [%] | % inhibition of biotinylated nAbs (biotinylated m72A1) ([3]; unlabeled mAb 67.5 μg/ml) [%] | % inhibition of biotinylated nAbs (biotinylated m72A1) ([3]; unlabeled mAb 125 μg/ml) [%] | % inhibition of biotinylated nAbs (biotinylated m72A1) ([3]; unlabeled mAb 250 μg/ml) [%] | % inhibition of biotinylated nAbs (biotinylated m72A1) ([3]; unlabeled mAb 500 μg/ml) [%] | blocking of EBV infection of Raji cells (in words) [1] | competitive binding versus m72A1 and h72A1 (in words) [3] | antigen binding competition with biotinylated m72A1 (in words) [3] | EBV neutralization, summary statement ([1]; as stated in Example 8)
1 | m72A1: EBV anti-gp350 neutralizing mouse antibody purified from HB168 hybridoma (ATCC); SEQ ID NO: 100 / 101 (antibody, V domains shown, heavy chain mAb 72A1; light chain mAb 72A1) VH: PELVKPGTSMKISCKASGSSFTDYTMNWMKQSHGKNLEWIGLINPYNGGTRYNQKFKGKATLTLDKSSSTAYMEVLSLTSEDSAVYYCAGGLRRVNWFAYWGQGTLVSVSAAKTTPPSVYPLAPGSAAQTNSMVTLG VL: QAVLTQESALTTSPGETVTLTCRSSTGAVTTSNYANWVQEKPDHLFTGLIGGTNNRVPGVPARFSGSLIGDKAALTITGAQTEDEAIYFCVLWHSNHWVFGGGTKLTVL | 93 | dose-dependent neutralization | 35-80% | bound | 1 | 82 | 97 | 90 | 37 | 31 | 98 | 98 | 97 | 94 | 93 | 91 | – | – | – | –
2 | HB11: murine anti-EBV gp350 mAb, IgG1 κ; SEQ ID NO: 120 / 121; neutralizing (antibody, V domains shown, heavy chain mAb HB11; light chain mAb HB11, murine anti-EBV gp350 mAb, IgG1 κ; neutralizing) VH: PSLVKPSQTLSLTCSVTGDSITSGFWNWIRKFPGNKLEYMGYISYSGSTYYNPSLKSRISITRDTSKNQYYLQLNSVTTEDTATYYCARGNGGNYDWYFDVWGAGTTVTVSSAKTTPPSVYPLAPGSAAQTNSMVTLG VL: AIMSASLGEKVTMSCRASSSVNFMNWYQQKSDDSPKLLIYYISNLAPGVPARFSGSGSGNSYSLTISGMEGEDAATYYCQQFTSSPSWTFGGGTKLEIKRADAAPTV | – | dose-dependent neutralization | – | bound | – | – | – | – | – | – | – | – | – | – | – | – | blocked EBV infection in a dose-dependent manner | bound targets that overlapped with those of both m72A1 and h72A1 | Antigen binding competition was observed | –
3 | HB5: murine anti-EBV gp350 mAb, IgG2a κ; SEQ ID NO: 108 / 109; neutralizing (antibody, V domains shown, heavy chain mAb HB5; light chain mAb HB5, murine anti-EBV gp350 mAb, IgG2a κ; neutralizing) VH: AELVRPGASVKISCKAFGYTFTNHNINWVKQRPGQGLDWIGYINPYNDYTSYNQKFKGKATLTVDKSSNTAYMELSSLTSEDSAVYYCARSEGWLRRGAWFAYWGQGTLVTVSAAKTTAPSVYPLAPVCGDTTGSSVTLG VL: AILSVSPGERVSFSCRASQSIGTSIHWYQQRTNDSPRLLIKYASESISGIPPRFSGSGSGTDFTLSINSVESEDIADYHCQQSNSWPMLTFGAGTKLELKRADAAPTV | 90 | dose-dependent neutralization | 60-80% | bound | – | – | – | – | – | – | – | – | – | – | – | – | blocked EBV infection in a dose-dependent manner | bound targets that overlapped with those of both m72A1 and h72A1 | Antigen binding competition was observed | non-neutralizing
